The values below come from US20150119254.

Data set [1] relates to T1, VEGF-165 (Homo sapiens), P15692-4.
T1 sequence: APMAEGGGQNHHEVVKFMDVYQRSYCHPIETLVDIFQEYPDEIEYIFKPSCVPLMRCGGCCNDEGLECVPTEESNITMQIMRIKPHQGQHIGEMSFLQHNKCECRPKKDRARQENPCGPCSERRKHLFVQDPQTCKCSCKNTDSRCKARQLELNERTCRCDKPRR
Description: SPR. As to conditions: for binding signal: 10 nM VEGF-165, 930 s.

Data set [2] has as its target T2, IFN-gamma (UniProt P01579).
T2 sequence: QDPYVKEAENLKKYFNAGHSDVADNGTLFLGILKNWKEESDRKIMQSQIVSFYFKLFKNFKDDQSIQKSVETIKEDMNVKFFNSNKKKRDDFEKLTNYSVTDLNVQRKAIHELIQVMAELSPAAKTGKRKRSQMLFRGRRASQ
Description: SPR. As to conditions: Ds at n; for binding signal: 150 nM IFN-gamma, 930 s.

The mark [3] stands for this setting: Ds at n, PBS + 0.005% NP-40, 25 C.

For orientation: Kd means the free concentration of one partner at which half of the binding sites on the other are occupied at equilibrium, for simple one-to-one binding. Sequence “ACTGCGTCCGAAGGGGCNTGCAGTGANCCCGAATGGGTCCG [VGd1-2Ds-41]” gave an equilibrium dissociation constant (Kd) in data set [1] (Ds at n, 25 C) of 0.069 nM. As to “ATCAGTCCACAAAGTGCTGGGTCCGNATGGCGGGGGGTTAGGCCTCTTTGGGGCGG [VG01Ds-57]”, in data set [1] (Ds at n), the binding signal was found to be 0.2 bound ratio. Same read-out and setting: under “ATCAGTCCACATACGCGGGGGTGTTGAAGGGTTAGTCGGANGTAGTGTGTACAGAG [VG02bDs-57]” stands 0.39 bound ratio; under “ATCAGTCCACATCGAGCGTGAGGTCCGAAAGGCGACTCTTNTAACATCAAGTAATG [VG02aDs-57]”, 0.15 bound ratio. On to “ATCAGTCCACATTGGACTTAGCCCAGCAAGACAATCTACGNTATGCCAGAAGTTGG [IF02Ds-57]”, for which the binding signal in data set [2] was 0.03 bound ratio. Same read-out and setting: to “ATCAGTCCACCTATGTGGGTTGGNTGGGGTGTATGTTNGTAGGGCTANGGAGGTGG [IF11Ds-57]” belongs 0.66 bound ratio. As for “ATCAGTCCACGAGATGGATGGTAGTGGCCGNACGGGGGGGNTGGAGANGCTGGCTG [VG08Ds-57]”, the binding signal in data set [1] (Ds at n) is 0.21 bound ratio. As for “ATCAGTCCACTAATCAGGAAGANGATAGGGTTTGTCTTNTGTTGCCACGCTGGGAG [IF04Ds-57]”, the binding signal in data set [2] worked out at 0.1 bound ratio. On the same count and under the same terms, under “ATCAGTCCACTCCTTCTGTCATNGGGCAGGCGCNTTTGGTGTAGNGTTTATCTTGG [IF07aDs-57]” stands 0.07 bound ratio. In turn, “ATCAGTCCACTCGGGTCGTTTANTAATGTAGGTNTGGGCTAGGCNGCTAGTGGATG [IF07bDs-57 (Table 14)]” displayed a dissociation constant Kd in data set [2] (205 mM NaCl phosphate pH 7.4, 25 C) of 0.8 nM.

The sequence “ATCAGTCCACTCGGGTCGTTTANTAATGTAGGTNTGGGCTAGGCNGCTAGTGGATG [IF07bDs-57]” returned a Kd in data set [2] (Bound 0.72 (Table 13), 25 C) of 2 nM. Take “CCGGTAAACTGCGTCCGAAGGGGCNTGCAGTGANCCCGAATGGGTCCGG [VGd1-2Ds-49]”: in data set [1] (setting [3]), the dissociation constant (Kd) turned out to be 0.0046 nM. “CGGTAAACTGCGTCCGAAGGGGCATGCAGTGAACCCGAATGGGTCCG [VGd1-2A-47]” displayed a Kd in data set [1] (25 C) of 0.2 nM. On to “CGGTAAACTGCGTCCGAAGGGGCNTGCAGTGANCCCGAATGGGTCCG [VGd1-2Ds-47]”, for which, in data set [1] (setting [3]), the Kd amounted to 0.0046 nM. In turn, “GTAAACTGAGTCCGAAGGGGCNTGCAGTGANCCCGAATGGGTCCG [VG20Ds-45]” gave a dissociation constant Kd in data set [1] (Ds at n, 25 C) of 0.022 nM.

In data set [1] (Ds at n, 25 C), “GTAAACTGCGTCCGAAGGGGCATGCAGTGANCCCGAATGGGTCCG [VGd1-ADs-45]” showed a dissociation constant (Kd) of 0.037 nM.

The sequence “GTAAACTGCGTCCGAAGGGGCNTGCAGTGAACCCGAATGGGTCCG [VGd1-DsA-45]” registered a dissociation constant (Kd) in data set [1] (Ds at n, 25 C) of 0.094 nM. Same read-out and setting: under “GTAAACTGCGTCCGAAGGGGCNTGCAGTGANCCCGA [VGd1-2Ds-36b]” stands 0.017 nM; under “GTAAACTGCGTCCGAAGGGGCNTGCAGTGANCCCGAATGGG [VGd1-2Ds-41b]”, 0.06 nM; under “GTAAACTGCGTCCGAAGGGGCNTGCAGTGANCCCGAATGGGTCCG [VGd1-2Ds-45]”, 0.016 nM. With “GTCCGAAGGGGCNTGCAGTGANCCCGAATGGGTCCG [VGd1-2Ds-36]”, the dissociation constant Kd in data set [1] (Ds at n, Bound 0.02, 25 C) came out at 4.6 nM. In data set [1] (Ds at n, printed as uM, evidently pM, 25 C), “TCAGTCCACGGTAAACTGAGTCCGAAGGGGCNTGCAGTGANCCCGAATGGGTCCGG [VG20Ds-57]” gave a Kd of 0.0059 nM. “TCCACTCGGGTCATTTANTAATGTAGGTNTGGGCTAGGCNGCTAGTGGA [IFd1-3Ds-49]”: the dissociation constant Kd in data set [2] (205 mM NaCl, 25 C) came to 1.6 nM. “TCGGGTCATTTAATAATGTAGGTATGGGCTAGGCNGCTAGTGGAT [IFd1-AADs-45]” returned a Kd in data set [2] (205 mM NaCl, 25 C) of 113 nM. Same read-out and setting: under “TCGGGTCATTTAATAATGTAGGTNTGGGCTAGGCNGCTAGTGGAT [IFd1-A2Ds-45]” stands 20 nM; under “TCGGGTCATTTANTAATGTAGGTATGGGCTAGGCNGCTAGTGGAT [IFd1-DsADs-45]”, 127 nM. In data set [2] (Bound 0.36), “TCGGGTCATTTANTAATGTAGGTNTGGGCTAGGCAGCTAGTGGAT [IFd1-DsDsA-45]” displayed a dissociation constant (Kd) of more than 200 nM. In data set [2] (205 mM NaCl, 25 C), “TCGGGTCATTTANTAATGTAGGTNTGGGCTAGGCNGCTAGTGGAT [IFd1-3Ds-45]” gave a Kd of 15 nM. Still for that read-out and setting: under “TCGGGTCGTTTANTAATGTAGGTNTGGGCTAGGCNGCTAGTGGAT [IF07bDs-45]” stands 20 nM; under “TGACCTCGGGTCATTTANTAATGTAGGTNTGGGCTAGGCNGCTAGGTCA [IFd1-3Ds-49b]”, 1.1 nM. The sequence “TGTCTAAGTAAGGTGGGATTGGCGGGGATGTCGGA [Ds-09-1-AAA]” gave a Kd in data set [1] (retention 28%) of more than 100 nM. Regarding “TGTCTAAGTAAGGTGGGNTTGGCGGGGNTGTCGGA [Ds-09-1-ADsDs]”, the equilibrium dissociation constant (Kd) in data set [1] (Ds at n, PBS + 0.05% NP-40, 25 C, retention 94%) was determined as 1 nM. In turn, “TGTCTAAGTANGGTGGGATTGGCGGGGNTGTCGGA [Ds-09-1-DsADs]” showed a Kd in data set [1] (Ds at n, retention 33%) of more than 100 nM.

Sequence “TGTCTAAGTANGGTGGGNTTGGCGGGGATGTCGGA [Ds-09-1-DsDsA]” displayed a Kd in data set [1] (Ds at n, retention 32%) of more than 100 nM.

For “TGTCTAAGTANGGTGGGNTTGGCGGGGNTGTCGGA [Ds-09-1-DsDsDs]”, the Kd in data set [1] (Ds at n, PBS + 0.05% NP-40, 25 C, retention 92%) was found to be 4 nM. In data set [1] (Ds at n, retention 90%), “TGTCTAAGTANTGTGGGNTTGGAGGGGNTGTCGGA [Ds-09-1-mDsDsDs]” came in with a dissociation constant Kd of 50 nM.

“TTTTTGTAAACTGCGTCCGAAGGGGCNTGCAGTGANCCCGAATGGGTCCG [VGd1-2Ds-50]”: the equilibrium dissociation constant (Kd) in data set [1] (Ds at n, 25 C) was found to be 0.017 nM.
